Experimental data from patent publication US20060002935A1.

Columns and labels:
hen egg lysozyme (hen) = hen egg lysozyme (hen) (UniProt P00698); experiment: ELISA on HEL-coated plate, detection via myc tag (9e10) and anti mouse IgG-HRP
[1] = molecular target: human TNFR1 on HeLa cells (human) (UniProt P19438); experiment: cell-based or functional assay
Chain of human TNFR1 on HeLa cells (human) (P19438 30-455): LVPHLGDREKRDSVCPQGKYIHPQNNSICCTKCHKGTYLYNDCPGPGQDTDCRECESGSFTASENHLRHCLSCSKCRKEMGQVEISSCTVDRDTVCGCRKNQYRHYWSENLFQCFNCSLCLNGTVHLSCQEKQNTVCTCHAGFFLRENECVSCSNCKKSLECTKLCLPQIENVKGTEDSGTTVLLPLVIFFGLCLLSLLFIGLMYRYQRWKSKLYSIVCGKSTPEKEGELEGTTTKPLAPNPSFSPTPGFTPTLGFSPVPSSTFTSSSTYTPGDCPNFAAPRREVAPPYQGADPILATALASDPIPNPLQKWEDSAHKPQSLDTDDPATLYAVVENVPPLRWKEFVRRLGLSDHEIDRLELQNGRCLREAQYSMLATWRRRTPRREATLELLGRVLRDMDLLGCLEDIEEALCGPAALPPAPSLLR

Chain of hen egg lysozyme (hen) (P00698 19-147): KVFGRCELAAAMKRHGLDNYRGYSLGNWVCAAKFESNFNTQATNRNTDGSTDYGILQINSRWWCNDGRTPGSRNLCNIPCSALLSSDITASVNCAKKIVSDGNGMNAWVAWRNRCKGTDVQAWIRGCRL

ELISA signal (hen egg lysozyme (hen))	HeLa IL-8 Cell Assay, Activity (IC50) [1] [nM]	Binder
0.154		VH CH/VH CK dual specific Fab like fragment (HEL4 CH / TAR2-5 CK) (bispecific antibody, from a related filing, V domains shown, left off: a dimerising Fc or GST; small tags and cut ends) V domain 1: EVQLLESGGGLVQPGGSLRLSCAASGFRISDEDMGWVRQAPGKGLEWVSSIYGPSGSTYYADSVKGRFTISRDNSKNTLYLQMNSLRAEDTAVYYCASALEPLSEPLGFWGQGTLVTVSS V domain 2: EVQLLESGGGLVQPGGSLRLSCAASGFTFDLYNMFWVRQAPGKGLEWVSFISQTGRLTWYADSVKGRFTISRDNSKNTLYLQMNSLRAEDTAVYYCAKTLEDFDYWGQGTLVTVSS
	20	TAR2h-10-55 (protein) EVQLLESGGGLVQPGGSLRLSCAASGFPFEWYWMGWVRQAPGKGLEWVSAISGSGDSTYYADSVKGRFTISRDNSKNTLYQQMNSLRAEDAAVYYCAKVKLGGGPNFGYRGQGTLVTVSS
